Experimental findings from IntAct's records for PubMed 22407295 are described below.

The labels stand for the following.
B1: mRNA-decapping enzyme-like protein (Arabidopsis thaliana (Mouse-ear cress)), Q9SJF3 (parent)
chain: MSQNGKIIPNLDQNSTRLLNLTVLQRIDPYIEEILITAAHVTFYEFNIELSQWSRKDVEGSLFVVKRSTQPRFQFIVMNRRNTDNLVENLLGDFEYEVQGPYLLYRNASQEVNGIWFYNKRECEEVATLFNRILSAYSKVNQKPKASSSKSEFEELEAKPTMAVMDGPLEPSSTARDAPDDPAFVNFFSSTMNLGNTASGSASGPYQSSAIPHQPHQPHQPTIAPPVAAAAPPQIQSPPPLQSSSPLMTLFDNNPEVISSNSNIHTDLVTPSFFGPPRMMAQPHLIPGVSMPTAPPLNPNNASHQQRSYGTPVLQPFPPPTPPPSLAPAPTGPVISRDKVKEALLSLLQEDEFIDKITRTLQNALQQ
partner: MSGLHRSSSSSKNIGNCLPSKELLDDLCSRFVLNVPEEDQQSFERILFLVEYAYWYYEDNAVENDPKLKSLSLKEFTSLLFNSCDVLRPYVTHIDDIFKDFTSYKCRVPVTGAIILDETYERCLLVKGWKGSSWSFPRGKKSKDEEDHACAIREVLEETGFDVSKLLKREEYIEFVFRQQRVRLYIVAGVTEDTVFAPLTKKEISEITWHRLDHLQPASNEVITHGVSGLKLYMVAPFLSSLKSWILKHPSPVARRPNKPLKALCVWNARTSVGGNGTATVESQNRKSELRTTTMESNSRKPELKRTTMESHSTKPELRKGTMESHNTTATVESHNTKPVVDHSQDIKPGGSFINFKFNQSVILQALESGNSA

In this assay the parent is B1. The following applies: with dcp2_arath DCP2, Q8GW31.
On to MSQNGKIIPNLDQNSTRLLNLTVLQRIDPYIEEILITAAHVTFYEFNIELSQWSRKDVEGSLFVVKRSTQPRFQFIVMNRRNTDNLVENLLGDFEYEVQGPYLLYRNASQEVNGIWFYNKRECEEVATLFNRILSAYSKVNQKPKASSSKSEFEELEAKPTMAVMDGPLEPSSTARDAPDDPAFVNFFSSTMNLGNTASGSASGPYQSSAIPHQPHQPHQPTIAPPVAAAAPPQIQDPPPLQSSSPLMTLFDNNPEVISSNSNIHTDLVTPSFFGPPRMMAQPHLIPGVSMPTAPPLNPNNASHQQRSYGTPVLQPFPPPTPPPSLAPAPTGPVISRDKVKEALLSLLQEDEFIDKITRTLQNALQQ [S237D], for which the “effect of a mutation on the interaction” value was “increasing interaction”.
